Where no end group is shown, it is not given here. The star is where a group is joined. BMPH = NNC(=O)CCN1C(=O)CC(*)C1=O
Key:
Test in all cases: BLI
[1] = molecular target: N-terminal leucine peptide (X-GMMSC, X = leucine)
[2] = molecular target: N-terminal methionine peptide (X-GMMSC, X = methionine)
[3] = molecular target: T1, Methionine aminopeptidase from E. coli (E. coli, UniProt P0AE18 1-264)
T1 sequence: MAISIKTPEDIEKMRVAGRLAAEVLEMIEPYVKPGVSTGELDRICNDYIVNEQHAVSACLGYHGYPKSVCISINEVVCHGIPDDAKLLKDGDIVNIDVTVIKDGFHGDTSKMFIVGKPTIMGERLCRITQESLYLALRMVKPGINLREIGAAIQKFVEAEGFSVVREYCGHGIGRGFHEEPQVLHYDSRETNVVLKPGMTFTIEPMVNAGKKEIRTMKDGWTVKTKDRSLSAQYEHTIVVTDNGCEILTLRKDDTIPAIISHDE

Molecule | Kd [1] [µM] | koff [1] [s⁻¹] | kon [1] [M⁻¹ s⁻¹] | Kd [2] [µM] | koff [2] [s⁻¹] | kon [2] [M⁻¹ s⁻¹] | Kd [3] [µM] | koff [3] [s⁻¹] | kon [3] [M⁻¹ s⁻¹]
eLAP, designed leucine aminopeptidase derived from E. coli methionine aminopeptidase (from UniProt P0AE18 4-264) (enzyme) | 0.826 | 0.00142 | 1720 | 19.1 | 0.00408 | 214 |  |  | 
LGMMSC(BMPH) [N-terminal leucine peptide (X-GMMSC, X = leucine)] |  |  |  |  |  |  | 54.2 | 0.0147 | 271
MGMMSC(BMPH) [N-terminal methionine peptide (X-GMMSC, X = methionine)] |  |  |  |  |  |  | 2.65 | 0.00489 | 1850

Reference: publication PMC3945839 (Protein Science : A Publication of the Protein Society, 2014)
